Measured values: patent EP4786492A1 (Simcere Zaiming Pharmaceutical Co., Ltd., dated 2026)
Numbering of substitutions follows the chain as printed.

T1: mouse DLL3 on CHO K1-mDLL3 cells (mouse, UniProt O88516 33-490)
T1 construct: also called mouse DLL3 recombinant cell line
T1 sequence: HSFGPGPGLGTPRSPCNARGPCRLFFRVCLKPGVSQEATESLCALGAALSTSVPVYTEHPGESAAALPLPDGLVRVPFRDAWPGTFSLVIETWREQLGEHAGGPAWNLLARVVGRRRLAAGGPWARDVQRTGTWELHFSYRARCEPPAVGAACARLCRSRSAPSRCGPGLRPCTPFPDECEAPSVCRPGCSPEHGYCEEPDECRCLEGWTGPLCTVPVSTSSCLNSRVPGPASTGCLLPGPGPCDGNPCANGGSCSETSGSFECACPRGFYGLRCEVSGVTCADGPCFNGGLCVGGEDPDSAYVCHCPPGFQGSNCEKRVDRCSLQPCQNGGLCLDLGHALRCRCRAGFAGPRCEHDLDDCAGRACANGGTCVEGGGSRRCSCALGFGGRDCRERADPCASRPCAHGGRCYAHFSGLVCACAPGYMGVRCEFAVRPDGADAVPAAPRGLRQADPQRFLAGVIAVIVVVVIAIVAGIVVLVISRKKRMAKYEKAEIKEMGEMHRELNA

T2: human DLL3 on CHO-K1 hDLL3 cells (human, UniProt Q9NYJ7 27-492)
T2 construct: also called human DLL3 recombinant cell line
T2 sequence: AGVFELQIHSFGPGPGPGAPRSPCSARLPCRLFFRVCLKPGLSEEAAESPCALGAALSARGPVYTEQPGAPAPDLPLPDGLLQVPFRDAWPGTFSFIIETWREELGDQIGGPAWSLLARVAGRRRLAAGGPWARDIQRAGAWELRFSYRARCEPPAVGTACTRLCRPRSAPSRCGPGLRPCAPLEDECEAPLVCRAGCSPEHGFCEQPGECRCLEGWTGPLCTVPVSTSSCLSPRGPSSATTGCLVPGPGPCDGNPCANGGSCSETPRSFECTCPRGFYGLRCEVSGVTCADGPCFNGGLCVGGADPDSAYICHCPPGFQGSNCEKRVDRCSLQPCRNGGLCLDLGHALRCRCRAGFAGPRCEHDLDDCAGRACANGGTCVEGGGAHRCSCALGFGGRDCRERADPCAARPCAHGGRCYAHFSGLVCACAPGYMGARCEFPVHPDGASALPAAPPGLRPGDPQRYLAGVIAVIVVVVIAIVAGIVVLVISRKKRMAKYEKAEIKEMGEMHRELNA

T3: human DLL3-his protein (human, UniProt Q9NYJ7 27-492)
T3 construct: also called human DLL3 protein; DLL3 antigen protein; not shown: His tag
T3 sequence: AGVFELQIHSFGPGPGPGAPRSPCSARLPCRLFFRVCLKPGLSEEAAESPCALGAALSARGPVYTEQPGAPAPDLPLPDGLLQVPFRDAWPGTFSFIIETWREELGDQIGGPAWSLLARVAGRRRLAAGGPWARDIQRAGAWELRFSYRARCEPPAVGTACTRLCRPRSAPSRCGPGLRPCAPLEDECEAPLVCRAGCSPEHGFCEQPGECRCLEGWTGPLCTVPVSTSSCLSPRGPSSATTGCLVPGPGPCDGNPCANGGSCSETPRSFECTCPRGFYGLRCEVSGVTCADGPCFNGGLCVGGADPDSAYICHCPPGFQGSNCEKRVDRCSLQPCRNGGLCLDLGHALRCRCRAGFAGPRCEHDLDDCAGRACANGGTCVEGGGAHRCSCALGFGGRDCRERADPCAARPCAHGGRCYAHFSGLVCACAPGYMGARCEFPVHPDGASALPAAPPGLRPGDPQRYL

T4: monkey DLL3 on CHO K1-cyno DLL3 cells (cynomolgus monkey)
T4 construct: also called monkey DLL3 recombinant cell line
T4 chain: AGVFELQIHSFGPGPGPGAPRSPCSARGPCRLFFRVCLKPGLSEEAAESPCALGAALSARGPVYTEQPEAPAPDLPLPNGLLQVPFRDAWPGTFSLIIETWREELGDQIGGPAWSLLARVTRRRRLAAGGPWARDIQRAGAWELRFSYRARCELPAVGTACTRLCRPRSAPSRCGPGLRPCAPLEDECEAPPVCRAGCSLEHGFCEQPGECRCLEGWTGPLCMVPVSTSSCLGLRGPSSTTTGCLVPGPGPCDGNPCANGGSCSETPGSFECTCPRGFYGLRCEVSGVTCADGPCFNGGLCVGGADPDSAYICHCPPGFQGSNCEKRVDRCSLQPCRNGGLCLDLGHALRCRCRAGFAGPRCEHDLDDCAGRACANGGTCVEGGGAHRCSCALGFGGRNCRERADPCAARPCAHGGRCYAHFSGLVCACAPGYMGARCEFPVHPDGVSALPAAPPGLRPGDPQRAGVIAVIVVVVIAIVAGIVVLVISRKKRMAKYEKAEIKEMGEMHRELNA

T5: human DLL3 endogenously expressed on SHP77 and NCI-H82 cells (human, UniProt Q9NYJ7 27-618)
T5 construct: whole, on cells; cells endogenously expressing DLL3; also called SHP77 cells; SHP-77 cells
T5 sequence (looked up): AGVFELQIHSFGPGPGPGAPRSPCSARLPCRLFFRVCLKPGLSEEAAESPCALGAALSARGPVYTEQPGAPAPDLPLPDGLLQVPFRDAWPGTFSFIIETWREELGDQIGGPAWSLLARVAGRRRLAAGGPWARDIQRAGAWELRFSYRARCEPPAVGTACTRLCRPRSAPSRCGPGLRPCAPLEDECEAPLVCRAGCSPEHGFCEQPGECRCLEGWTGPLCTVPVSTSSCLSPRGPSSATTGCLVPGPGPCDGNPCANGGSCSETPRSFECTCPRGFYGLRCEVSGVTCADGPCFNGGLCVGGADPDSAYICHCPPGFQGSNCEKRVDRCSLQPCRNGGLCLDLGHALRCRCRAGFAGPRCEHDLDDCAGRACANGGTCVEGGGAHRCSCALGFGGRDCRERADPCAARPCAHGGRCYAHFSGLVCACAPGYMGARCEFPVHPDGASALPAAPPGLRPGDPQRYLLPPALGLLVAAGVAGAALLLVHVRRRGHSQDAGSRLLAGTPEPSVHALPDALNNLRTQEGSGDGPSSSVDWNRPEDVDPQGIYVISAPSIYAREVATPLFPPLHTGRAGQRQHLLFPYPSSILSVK

B1: Hab014VL3VH1-hFc (Fc fusion)
scFv (part 1 of 2): DIVMTQSPDSLAVSLGERATINCKASEDIYNRLAWYQQKPGQTPKLLISGATSLETGVPDRFSGSGSGKDFTLTISSLQAEDVAVYYCQQYWSLPWTFGGGTKVEIK
scFv (part 2 of 2): EVQLVQSGAEVKKPGASVKVSCKASGYTFTDYYMNWVRQAPGQRLEWMGDINPNHGDTGYNQKFTGRVTITVDKSASTAYMELSSLRSEDTAVYYCARNFFYYGTTYGWYFDVWGQGTTVTVSS
notes: humanized mab014, VL-linker-VH-human IgG1 Fc; not shown: linker; human IgG1 Fc fragment
B2: Hab008L1H2a-hFc (Fc fusion)
scFv (part 1 of 2): DIQMTQSPSSLSASVGDRVTITCKASQNVGTAVAWYQQKPGKSPKLLIFSASIRYTGVPSRFSGSGSGTDFTLTISSLQPEDFATYYCQQYSSSPYTFGGGTKVEIK
scFv (part 2 of 2): EVQLVQSGAEVKKPGASVKVSCKASGYTFTDYYMNWVRQAPGQRLEWMGIINPYNSGTSYNQKFRGRVTLTVDKSASTAYMELSSLRSEDTAVYYCSRYDYDYDVEGAMDYWGQGTTVTVSS
notes: humanized mab008, VL-linker-VH-human IgG1 Fc; also called Hab008 humanized molecule; not shown: linker; human IgG1 Fc fragment
B3: Hab015VL4VH1a-hFc (Fc fusion)
scFv (part 1 of 2): NIVLTQSPATLSLSPGERATLSCKASENVGTYVSWFQQKPGQSPRLLIYGASNRYTGIPARFSGSGSGTDFTLTISSLEPEDFAVYYCGQFYSFPSTFGGGTKVEIK
scFv (part 2 of 2): EVQLVESGGGLVKPGGSLRLSCAASGITFSNFWMNWVRQAPGKGLEWVGQIRLKSDDYATHYAESVKGRFTISREDSKNTVYLQMNSLKTEDTAVYYCTTGYYFDYWGQGTTVTVSS
notes: humanized mab015, VL-linker-VH-human IgG1 Fc; also called Hab015L4H1a; not shown: linker; human IgG1 Fc fragment
B4: Hab015VL5VH1a-hFc (Fc fusion)
scFv (part 1 of 2): NIQMTQSPSSLSASVGDRVTITCKASENVGTYVSWYQQKPGKSPKLLIYGASNRYTGVPSRFSGSGSGTDFTLTISSLQPEDFATYYCGQFYSFPSTFGGGTKVEIK
scFv (part 2 of 2): B3 scFv (part 2 of 2)
notes: humanized mab015, VL-linker-VH-human IgG1 Fc; also called Hab015L5H1a; not shown: linker; human IgG1 Fc fragment
B5: Hab015VL4VH5a-hFc (Fc fusion)
scFv (part 1 of 2): B3 scFv (part 1 of 2)
scFv (part 2 of 2): B3 scFv (part 2 of 2) with A23V
notes: humanized mab015, VL-linker-VH-human IgG1 Fc; also called Hab015L4H5a; not shown: linker; human IgG1 Fc fragment
B6: Hab015VL5VH5a-hFc (Fc fusion)
scFv (part 1 of 2): B4 scFv (part 1 of 2)
scFv (part 2 of 2): B3 scFv (part 2 of 2) with A23V
notes: humanized mab015, VL-linker-VH-human IgG1 Fc; also called Hab015L5H5a; not shown: linker; human IgG1 Fc fragment
B7: Hab015VL4VH6a-hFc (Fc fusion)
scFv (part 1 of 2): B3 scFv (part 1 of 2)
scFv (part 2 of 2): B3 scFv (part 2 of 2) with G42E
notes: humanized mab015, VL-linker-VH-human IgG1 Fc; also called Hab015L4H6a; not shown: linker; human IgG1 Fc fragment
B8: Hab015VL4VH1b-hFc (Fc fusion)
scFv (part 1 of 2): B3 scFv (part 1 of 2)
scFv (part 2 of 2): B3 scFv (part 2 of 2) with D56E
notes: humanized mab015, VL-linker-VH-human IgG1 Fc; also called Hab015L4H1b; not shown: linker; human IgG1 Fc fragment
B9: Hab015VL5VH6a-hFc (Fc fusion)
scFv (part 1 of 2): B4 scFv (part 1 of 2)
scFv (part 2 of 2): B3 scFv (part 2 of 2) with G42E
notes: humanized mab015, VL-linker-VH-human IgG1 Fc; also called Hab015L5H6a; not shown: linker; human IgG1 Fc fragment

Biological target: T1, mouse DLL3 on CHO K1-mDLL3 cells
Assay: FACS, CHO K1-mDLL3 cells

| binding result | Binder |
| --- | --- |
| binds | B1 |
| no binding | B2 |
| binds | B3 |
| binds | B4 |
| binds | B5 |
| binds | B6 |
| binds | B7 |
| binds | B8 |
| binds | B9 |

Biological target: T2, human DLL3 on CHO-K1 hDLL3 cells
Assay: FACS, CHO-K1 hDLL3 cells

| binding result | Binder |
| --- | --- |
| binds | B1 |
| binds | B2 |
| binds | B3 |
| binds | B4 |
| binds | B5 |
| binds | B6 |
| binds | B7 |
| binds | B8 |
| binds | B9 |

Biological target: T3, human DLL3-his protein
Assay: ELISA

| binding result | Binder |
| --- | --- |
| binds | B1 |
| binds | B2 |
| binds | B3 |
| binds | B4 |
| binds | B5 |
| binds | B6 |
| binds | B7 |
| binds | B8 |
| binds | B9 |

Biological target: T4, monkey DLL3 on CHO K1-cyno DLL3 cells
Assay: FACS, CHO K1-cyno DLL3 cells

| binding result | Binder |
| --- | --- |
| binds | B1 |
| binds | B2 |
| binds | B3 |
| binds | B4 |
| binds | B5 |
| binds | B6 |
| binds | B7 |
| binds | B8 |
| binds | B9 |

Biological target: T5, human DLL3 endogenously expressed on …
Assay: FACS, SHP77 and NCI-H82 cells

| binding result | Binder |
| --- | --- |
| binds | B1 |
| binds | B2 |
| binds | B3 |
| binds | B4 |
| binds | B5 |
| binds | B6 |
| binds | B7 |
| binds | B8 |
| binds | B9 |
